± gives the uncertainty stated by the source.
B1: Nucleosome-remodeling factor subunit BPTF, residues 2862 to 2918; numbered along this chain, Q12830 (parent)
chain: TKKDTKLYCICKTPYDESKFYIGCDRCQNWYHGRCVGILQSEAELIDEYVCPQCQST

Variants of: B1
Assay: abundance fitness (aPCA) (normalised: wild type 0, dead -1); higher = more abundant; growth selection in yeast, the domain comes from the species named
Conditions: Homo sapiens

Abundance fitness, by site and new letter:
D25: E 0.058 ± 0.07 | W -0.176 ± 0.083 | S 0.054 ± 0.064 | I -0.15 ± 0.16 | P -0.204 ± 0.081 | K 0.154 ± 0.11 | A -0.011 ± 0.078 | T 0.056 ± 0.078 | L -0.021 ± 0.061 | R 0.025 ± 0.067 | N 0 ± 0.1 | Q 0.099 ± 0.099 | G -0.041 ± 0.092 | F -0.168 ± 0.16 | H -0.061 ± 0.15
Y21: W -0.08 ± 0.11 | M 0.118 ± 0.11 | I -0.237 ± 0.17 | E -0.245 ± 0.14 | N -0.134 ± 0.19 | G -0.395 ± 0.12 | T -0.3 ± 0.13 | C -0.369 ± 0.17 | P -0.658 ± 0.14 | Q -0.359 ± 0.12 | R -0.151 ± 0.084 | A 0.006 ± 0.12 | F -0.161 ± 0.16 | K -0.196 ± 0.18 | H -0.188 ± 0.17 | V -0.19 ± 0.091 | L -0.245 ± 0.088
S18: V -0.72 ± 0.12 | H -0.098 ± 0.11 | M -0.284 ± 0.23 | Q -0.5 ± 0.29 | N -0.185 ± 0.14 | K -0.277 ± 0.27 | P -0.759 ± 0.13 | Y -0.37 ± 0.13 | F -0.582 ± 0.14 | W -0.746 ± 0.21 | G -0.087 ± 0.1 | D -0.031 ± 0.19 | I -1.05 ± 0.26 | L -0.536 ± 0.1 | R -0.24 ± 0.095 | T -0.198 ± 0.12
Q28: S 0.048 ± 0.068 | R -0.081 ± 0.073 | N -0.133 ± 0.12 | I -0.342 ± 0.11 | H 0.009 ± 0.11 | P -0.193 ± 0.088 | E -0.072 ± 0.15 | A -0.14 ± 0.094 | G -0.028 ± 0.094 | T -0.081 ± 0.081 | C 0.126 ± 0.12 | K 0.084 ± 0.1 | D -0.079 ± 0.12 | W -0.236 ± 0.11 | F -0.221 ± 0.1 | M -0.096 ± 0.082
I22: N -0.803 ± 0.18 | G -0.649 ± 0.086 | T -0.398 ± 0.12 | L 0.015 ± 0.067 | Y -0.617 ± 0.15 | A -0.578 ± 0.1 | H -0.678 ± 0.22 | E -0.953 ± 0.15 | C -0.806 ± 0.16 | W -0.533 ± 0.11 | P -0.87 ± 0.12 | R -0.475 ± 0.073 | D -0.819 ± 0.22 | Q -0.641 ± 0.11 | V -0.038 ± 0.088 | K -0.551 ± 0.12 | M -0.237 ± 0.12 | S -0.786 ± 0.1 | F -0.609 ± 0.2
C27: K -0.822 ± 0.09 | E -0.785 ± 0.096 | R -0.915 ± 0.085 | V -0.803 ± 0.13 | G -0.758 ± 0.089 | D -0.962 ± 0.25 | N -0.674 ± 0.19 | A -1.05 ± 0.13 | I -1.15 ± 0.29 | S -0.811 ± 0.091 | T -0.871 ± 0.1 | W -0.907 ± 0.097 | M -0.816 ± 0.1 | F -0.843 ± 0.2 | Q -0.956 ± 0.1 | H -1.11 ± 0.29 | P -1.08 ± 0.14 | Y -0.844 ± 0.15 | L -1.04 ± 0.11
H32: I -1 ± 0.15 | S -0.797 ± 0.094 | Q -0.898 ± 0.13 | F -0.891 ± 0.11 | G -0.831 ± 0.12 | P -0.95 ± 0.14 | W -1.1 ± 0.24 | R -0.808 ± 0.11 | M -0.944 ± 0.13 | L -1.02 ± 0.085 | N -0.879 ± 0.17 | E -0.929 ± 0.17 | K -0.979 ± 0.15 | A -0.832 ± 0.12 | D -0.9 ± 0.16 | T -1.1 ± 0.13 | Y -1 ± 0.17
G37: P -0.99 ± 0.15 | L -0.411 ± 0.08 | M -0.359 ± 0.12 | Q -0.216 ± 0.15 | H -0.157 ± 0.13 | W -0.681 ± 0.13 | N -0.158 ± 0.18 | I -0.882 ± 0.16 | R -0.207 ± 0.073 | F -0.418 ± 0.11 | K -0.009 ± 0.1 | E -0.23 ± 0.1 | C -0.379 ± 0.092 | S -0.074 ± 0.07 | A -0.277 ± 0.082
R34: T -0.065 ± 0.078 | D 0.105 ± 0.1 | H 0.035 ± 0.073 | I -0.164 ± 0.075 | P -0.144 ± 0.075 | S 0.051 ± 0.065 | E 0.005 ± 0.14 | A 0.026 ± 0.084 | K 0.109 ± 0.1 | W -0.363 ± 0.12 | F -0.258 ± 0.085 | Q 0.01 ± 0.097 | M -0.251 ± 0.11 | N 0.075 ± 0.079 | Y -0.107 ± 0.071
R26: N 0.075 ± 0.099 | V -0.18 ± 0.075 | Q -0.203 ± 0.11 | Y -0.11 ± 0.094 | P -0.207 ± 0.1 | S 0.008 ± 0.077 | D -0.029 ± 0.095 | F -0.279 ± 0.11 | G 0.041 ± 0.077 | M -0.193 ± 0.1 | I 0.043 ± 0.087 | K -0.17 ± 0.099 | T 0.067 ± 0.094 | W -0.278 ± 0.14 | E -0.087 ± 0.11 | L -0.068 ± 0.065 | H 0.064 ± 0.1
C24: P -0.539 ± 0.095 | N -0.966 ± 0.16 | Y -0.894 ± 0.1 | M -1.05 ± 0.13 | W -0.974 ± 0.15 | V -0.908 ± 0.11 | I -0.871 ± 0.16 | E -0.641 ± 0.14 | T -0.933 ± 0.12 | A -1.02 ± 0.16 | L -0.884 ± 0.087 | F -0.735 ± 0.14 | D -0.765 ± 0.12 | H -0.972 ± 0.18 | R -0.584 ± 0.096 | S -0.976 ± 0.1 | G -0.909 ± 0.13
W30: T 0.095 ± 0.099 | F 0.115 ± 0.13 | H 0.004 ± 0.1 | P -0.155 ± 0.099 | A 0.09 ± 0.078 | L 0.127 ± 0.075 | M 0.037 ± 0.1 | G -0.116 ± 0.09 | I -0.033 ± 0.1 | N -0.159 ± 0.1 | C -0.123 ± 0.14 | D -0.097 ± 0.14 | R 0.142 ± 0.076 | K 0.163 ± 0.1 | Y 0.083 ± 0.12 | S -0.009 ± 0.081
G33: A -0.007 ± 0.064 | Y 0.053 ± 0.12 | S -0.2 ± 0.071 | D -0.229 ± 0.098 | W -0.445 ± 0.097 | Q 0 ± 0.093 | P 0.053 ± 0.075 | I 0.011 ± 0.14 | N -0.357 ± 0.2 | T -0.238 ± 0.13 | M -0.446 ± 0.12 | F -0.192 ± 0.082 | V -0.098 ± 0.064 | K -0.271 ± 0.15 | C 0.196 ± 0.12
C35: D -0.931 ± 0.17 | T -0.933 ± 0.12 | P -0.74 ± 0.14 | S -0.75 ± 0.076 | K -0.915 ± 0.13 | G -0.958 ± 0.12 | A -0.827 ± 0.12 | V -1.06 ± 0.15 | L -0.81 ± 0.083 | W -0.981 ± 0.12 | R -1.01 ± 0.085 | E -0.834 ± 0.16 | Y -0.878 ± 0.12 | H -0.764 ± 0.12 | Q -0.804 ± 0.11 | M -0.827 ± 0.13 | F -0.92 ± 0.12 | N -1.07 ± 0.18
Y31: L -0.279 ± 0.064 | T -0.723 ± 0.095 | M -0.412 ± 0.088 | F 0.01 ± 0.081 | E -0.772 ± 0.11 | R -0.79 ± 0.082 | Q -0.706 ± 0.11 | C -0.206 ± 0.094 | V -0.341 ± 0.066 | W -0.527 ± 0.09 | H -0.592 ± 0.13 | N -0.573 ± 0.11 | D -1.01 ± 0.17 | P -0.787 ± 0.1 | S -0.693 ± 0.076 | G -0.804 ± 0.079 | K -0.649 ± 0.11
V36: C -0.572 ± 0.14 | L -0.123 ± 0.074 | A -0.565 ± 0.098 | S -0.669 ± 0.092 | N -0.393 ± 0.13 | P -0.983 ± 0.13 | I -0.109 ± 0.094 | D -0.801 ± 0.14 | F -0.832 ± 0.14 | G -0.863 ± 0.12 | W -0.927 ± 0.22 | Y -0.957 ± 0.17 | Q -0.862 ± 0.21 | K -0.531 ± 0.16 | M -0.381 ± 0.12 | H -0.785 ± 0.18
G23: K -0.13 ± 0.13 | A -0.099 ± 0.077 | Y -0.031 ± 0.13 | M -0.016 ± 0.12 | I -0.546 ± 0.2 | Q -0.079 ± 0.12 | D -0.085 ± 0.096 | W -0.177 ± 0.11 | R -0.126 ± 0.078 | H 0.029 ± 0.14 | P -0.297 ± 0.1 | N -0.133 ± 0.14 | F -0.139 ± 0.13 | C -0.007 ± 0.12 | T -0.021 ± 0.095 | S -0.085 ± 0.079 | V -0.223 ± 0.079
K19: F -0.351 ± 0.16 | Q -0.097 ± 0.13 | C -0.252 ± 0.13 | M -0.08 ± 0.098 | Y -0.286 ± 0.13 | A -0.069 ± 0.096 | P -0.637 ± 0.15 | V -0.108 ± 0.087 | R 0.048 ± 0.1 | G -0.244 ± 0.11 | H 0.007 ± 0.14 | L -0.059 ± 0.071 | E 0.106 ± 0.12 | D 0.044 ± 0.12 | T -0.231 ± 0.1 | S -0.186 ± 0.09 | I -0.101 ± 0.089 | W -0.668 ± 0.17 | N 0.082 ± 0.18
F20: A -0.161 ± 0.09 | I -0.244 ± 0.12 | M -0.149 ± 0.087 | L -0.193 ± 0.075 | W -0.083 ± 0.08 | C -0.346 ± 0.11 | T -0.009 ± 0.093 | E -0.002 ± 0.1 | D -0.062 ± 0.13 | Y -0.08 ± 0.12 | N -0.044 ± 0.13 | R -0.149 ± 0.067 | Q -0.104 ± 0.092 | K -0.192 ± 0.099 | P -0.001 ± 0.097 | G -0.226 ± 0.08 | S -0.11 ± 0.072
N29: V -0.064 ± 0.13 | C -0.353 ± 0.096 | R -0.061 ± 0.071 | H -0.062 ± 0.11 | I -0.431 ± 0.11 | A 0.06 ± 0.2 | Y -0.376 ± 0.11 | K -0.124 ± 0.12 | G -0.068 ± 0.12 | S -0.047 ± 0.074 | L -0.198 ± 0.099 | Q 0.089 ± 0.15 | F -0.307 ± 0.11 | M -0.1 ± 0.21 | E -0.328 ± 0.29 | T -0.191 ± 0.09

— the Human Domainome abundance scans (Beltran et al. 2025)
